Results as given in US20090263900.

Legend:
ZFN r2182-8 (synthetic) = experiment: cell_activity; details: pair with 2189-11; K562 cells, 50 bp HA linear donor 6.9 ug; targeted integration 2-9.4% over donors, 0% without ZFN
ZFN 2189-11 (synthetic) = experiment: cell_activity; details: pair with r2182-8; K562 cells, 50 bp HA linear donor 6.9 ug; targeted integration 2-9.4% over donors, 0% without ZFN

Sequence	activity (ZFN r2182-8 (synthetic)) [% TI]	activity (ZFN 2189-11 (synthetic)) [% TI]
CCCCACTGTGGGGTGG (double strand) [AAVS1 r2182-8 target half-site]	9.4	–
ACTAGGGACAGGATTG (double strand) [AAVS1 2189-11 target half-site]	–	9.4
